Consider 1 substance from paper PMC7301157.

The test has as its target Clb3-Cdk1 (S. cerevisiae) (UniProt P24870).
Chain of UniProt P24870 (P24870 whole entry, chain 1 of 2): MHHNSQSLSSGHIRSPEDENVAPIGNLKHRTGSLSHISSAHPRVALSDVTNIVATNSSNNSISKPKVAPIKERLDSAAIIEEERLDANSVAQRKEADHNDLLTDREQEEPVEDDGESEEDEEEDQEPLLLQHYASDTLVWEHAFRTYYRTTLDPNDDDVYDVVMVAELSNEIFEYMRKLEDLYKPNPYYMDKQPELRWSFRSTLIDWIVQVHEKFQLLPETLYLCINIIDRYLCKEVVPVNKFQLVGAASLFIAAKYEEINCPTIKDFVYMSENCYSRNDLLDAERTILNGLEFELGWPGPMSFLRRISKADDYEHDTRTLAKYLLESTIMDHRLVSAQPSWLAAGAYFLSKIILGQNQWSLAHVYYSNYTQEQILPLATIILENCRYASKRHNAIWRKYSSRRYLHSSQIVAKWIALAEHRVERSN
Chain of UniProt P24870 (P00546 whole entry, chain 2 of 2, further chain): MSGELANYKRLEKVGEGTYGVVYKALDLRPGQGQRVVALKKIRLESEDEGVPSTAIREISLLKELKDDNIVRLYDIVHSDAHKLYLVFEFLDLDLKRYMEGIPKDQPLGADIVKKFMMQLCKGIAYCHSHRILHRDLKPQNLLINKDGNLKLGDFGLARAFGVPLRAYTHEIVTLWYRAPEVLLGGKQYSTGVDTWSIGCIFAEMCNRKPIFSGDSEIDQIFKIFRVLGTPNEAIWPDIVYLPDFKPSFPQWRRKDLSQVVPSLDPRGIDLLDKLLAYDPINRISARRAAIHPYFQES

As for “Sic1(1–33 SPxA) model substrate with PPKGPNF (from UniProt P38634 1-33)”, the increase of the phosphorylation rate of the model substrate by Clb3-Cdk1 was 65 fold.
